From article PMC3212630
Read-outs that look alike come from different tables or passages of the source.

T1: rCsrABb (carbon storage regulator A) (Borrelia burgdorferi, UniProt O51202 1-81)
T1 sequence: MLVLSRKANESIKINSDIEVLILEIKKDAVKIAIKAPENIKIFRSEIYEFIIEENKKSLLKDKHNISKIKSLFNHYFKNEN


What was measured:
[1] = biological target: T1, rCsrABb (carbon storage regulator A); assay: EMSA
[2] = biological target: T1, rCsrABb (carbon storage regulator A); assay: EMSA; remark: listed apart in the source

Binder | binding result [1] | binding result [2]
GCAAAAGGAUUUGCCAAAGUCAGAAUUUAAAUUUUAUCAUGGAGGAAUGA (ssRNA) [flaB leader probe, wild type (P10, flaBp)] | binds | 
GCAAAAAAAUUUGCCAAAGUCAGAAUUUAAAUUUUAUCAUAAAGGAAUGA (ssRNA) [flaB leader probe, BS1 BS2 mutated (P13)] |  | no binding
